According to US11160876B2, “Methods and compositions for targeting t-cell cancers” (Mayo Foundation for Medical Education and Research, priority 2016, dated 2021):

Target: Abraxane (Homo sapiens, UniProt P02768)
Assay: Bio-layer interferometry (BLItz) binding affinity of OKT3 and Abraxane
Experimental: To understand the characteristics of the nanoparticles formed when binding OKT3 to Abraxane, the binding affinity of the complex was determined by a Bio-layer interferometry (BLItz) assay, which is an optical technology that uses interference of white light reflection to determine binding affinities of 2 proteins
In a BLItz assay, if the 2 proteins bind, the reflected light changes wavelength in a manner that correlates to the binding affinity of the 2 proteins. Here biotinylated OKT3 at 100 ug/ml was immobilized on a streptavidin-containing probe and exposed to Abraxane at 2 concentrations-500 ug/ml (Run 2) and 1000 ug/ml (Run 3)
In the case of the anti-human CD3 antibody (OKT3) and Abraxane, biotinylated OKT3 at 100 ug/ml was immobilized on a streptavidin-containing probe. The OKT3 bearing probe was then immersed in Abraxane at 2 concentrations, 500 ug/ml and 1000 ug/ml (Run 2 and Run 3). […] The association and dissociation constants on the proteins were calculated by the BLItz software.

binding of Abraxane to immobilized OKT3 (OKT3 bearing probe immersed in Abraxane at 500 ug/ml and 1000 ug/ml (Run 2 and Run 3)): concentration dependent manner
Kd (biotinylated OKT3 at 100 ug/ml immobilized on streptavidin-containing probe, Abraxane at 500 ug/ml and 1000 ug/ml, calculated by BLItz software, read-out: dissociation constant (Kd) of OKT3 and Abraxane): 2.25 nM
Substance: muromonab-CD3 [OKT3]
